Here are results for five molecules from PMC6953907.

The target of data set [1] is T1, DDX17 Core WT (human, UniProt Q92841-1 32-477). The experiment in a line: X-ray crystallography.
The target in data set [2] is T1, DDX17 Core WT. Briefly: X-ray crystallography. The source holds these as a separate data set.
Data set [3] concerns the target T1, DDX17 Core WT. The experiment in a line: EMSA. (In general: Mobility shift assays separate free from complexed probe on a gel.)

T1 sequence (Q92841 111-556): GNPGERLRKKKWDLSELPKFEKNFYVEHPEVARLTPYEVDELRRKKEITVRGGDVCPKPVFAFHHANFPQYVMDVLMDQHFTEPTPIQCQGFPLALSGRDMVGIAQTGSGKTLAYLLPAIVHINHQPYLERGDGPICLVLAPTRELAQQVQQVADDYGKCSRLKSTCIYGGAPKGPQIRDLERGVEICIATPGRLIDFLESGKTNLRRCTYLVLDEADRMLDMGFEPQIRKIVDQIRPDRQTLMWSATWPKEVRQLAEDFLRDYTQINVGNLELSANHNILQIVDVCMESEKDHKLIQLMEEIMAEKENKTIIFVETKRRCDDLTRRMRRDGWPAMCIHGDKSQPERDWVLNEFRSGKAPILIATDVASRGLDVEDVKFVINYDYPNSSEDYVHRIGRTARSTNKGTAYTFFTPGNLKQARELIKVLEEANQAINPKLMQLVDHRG

Turning to CACACACCUG (ssRNA) [125a-oligo1], in the data set with DDX17 Core WT [1], the binding result is “binds”. As for UUUUUUUUUU (ssRNA) [rU10], in the data set with DDX17 Core WT [2], the binding result is reported as “binds”. As for AAAAAAAAAA (ssRNA) [rA10], in the data set with DDX17 Core WT [3], the binding result is reported as “no binding”. For ACACACCUGG (ssRNA) [125a-oligo2], the binding result with DDX17 Core WT [1] is listed as “binds”. Same read-out and setting: as for AUUCAUCCAA (ssRNA) [18a-oligo1], the entry is “binds”.
